Test results from the supplement of paper PMC12042874.
± gives the uncertainty stated by the source.

Assay: amyloid nucleation score (Sup35N fusion, yeast selection) (log enrichment); library NNK2; higher = more nucleation; inactive = no reads after selection
How it was run: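 After 24 hours of induction with 100 μM copper sulfate, psi-negative yeast expressing peptides of 20 random codons fused to Sup35N were grown for 7 days at 30°C on medium lacking adenine and uracil. Input and output plasmid inserts were sequenced with Illumina, and sequences with under 100 input reads were discarded. Scores for nucleation are the DiMSum log enrichment of output over input reads, centred on the mode score of non-aggregating sequences.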
With VKRYGINGGFNYSSYCTAGI the amyloid nucleation score was “inactive”.
In the case of VKYRDIMSRGSVVRQNDKVS, the amyloid nucleation score is reported as “inactive”.
VLAGLMVNSGVL showed an amyloid nucleation score of -0.34 ± 0.3.
In the case of VLCSCCLVVNIVNVLSVHSY, the amyloid nucleation score is reported as 8.363 ± 0.06.
VLDFLVSCADYSWSLNNCES gave an amyloid nucleation score of -0.91 ± 0.76.
With VLDTMYGTDIQRRTMGKANT the amyloid nucleation score was 0.391 ± 0.36.
In the case of VLELLGPIMSRKIFLKVGFC, the amyloid nucleation score is reported as “inactive”.
VLHKNTKMANTWVHNPTEVE gave an amyloid nucleation score of -0.328 ± 0.27.
VLINEHYGYRFFCFNCADGK showed an amyloid nucleation score of 8.228 ± 0.036.
With VLIRSSDNWWAEGSGVLGSC the amyloid nucleation score was 0.201 ± 1.
Substance VLKKA has an amyloid nucleation score of 0.185 ± 0.8.
In the case of VLKVRHVFEGGTEVILQSNR, the amyloid nucleation score is reported as 2.22 ± 0.2.
VLLQNYAMVAFT showed an amyloid nucleation score of -1.07 ± 0.45.
With VLNISMLLWIYNTYGNDGKV the amyloid nucleation score was 8.029 ± 0.08.
With VLRNKVVCSYQLYLRWFGKD the amyloid nucleation score was 1.64 ± 0.37.
In the case of VLSSHRFNEAKMN, the amyloid nucleation score is reported as -0.366 ± 0.41.
VLTFRRMHD showed an amyloid nucleation score of 0.398 ± 0.65.
With VLWCGDLFAYLYMYVFSSNS the amyloid nucleation score was 7.516 ± 0.051.
With VLWVS the amyloid nucleation score was “inactive”.
Substance VLYGVCIVCCSWSMTSC has an amyloid nucleation score of 0.959 ± 0.6.
For VMCFNTMKC, the amyloid nucleation score was 7.386 ± 0.044.
VMFSVDHRLTQ gave an amyloid nucleation score of -0.354 ± 0.35.
For VMFVTSV, the amyloid nucleation score was 0.201 ± 0.29.
VMGCFSIGGLGMGVPMVYSR showed an amyloid nucleation score of 0.651 ± 0.44.
VMGYGKRLMSHLGMKSRTRL gave an amyloid nucleation score of 0.468 ± 0.29.
VMHFDLQICDRVHSRKSAPR showed an amyloid nucleation score of 8.523 ± 0.038.
With VMHSYDYVTMGFRSRTDPFR the amyloid nucleation score was 3.05 ± 0.14.
VMIWVTA showed an amyloid nucleation score of 0.637 ± 0.25.
VMNHWCNVWSFPWTMVRTHQ gave an amyloid nucleation score of 0.352 ± 0.31.
Work on VMNVNSCGWVVRHNR yielded an amyloid nucleation score of 4.97 ± 0.1.
For VMPIFNYWV, the amyloid nucleation score was 0.121 ± 0.3.
VMYKAFFRYFGR showed an amyloid nucleation score of 1.71 ± 0.24.
Work on VNECSFYIIPQTAQWCLVV yielded an amyloid nucleation score of 0.086 ± 0.5.
Work on VNFRVGCLVSYMNVK yielded an amyloid nucleation score of 2.6 ± 0.13.
For VNIWAVNICC, the amyloid nucleation score was 7.8 ± 0.048.
VNNATKIGWSSMAIRDNKTI showed an amyloid nucleation score of -0.142 ± 0.49.
With VNQLYWILCAYMVLCVGRDA the amyloid nucleation score was 4.54 ± 0.093.
Substance VNRIASKWVYLLMNEFYSI has an amyloid nucleation score of -1.21 ± 0.61.
VNWRLKHWLGEDDPLPVTSF showed an amyloid nucleation score of -0.267 ± 0.63.
VPDGHWSTHRRFSYMQVLNW gave an amyloid nucleation score of -0.441 ± 1.1.
Work on VPIKGHNRHMMNYNSEKAGS yielded an amyloid nucleation score of -1.13 ± 0.76.
VPNFRS gave an amyloid nucleation score of 4.16 ± 0.037.
With VPSQASGTRACKHNWTVWLE the amyloid nucleation score was 1.33 ± 0.25.
With VPVFFGPFQYT the amyloid nucleation score was -0.419 ± 0.63.
Substance VQFPSVMFICRIARRRTY has an amyloid nucleation score of 0.746 ± 0.67.
With VQFRAHSCLLA the amyloid nucleation score was 0.841 ± 0.74.
VQGPHSFNGVGCRPFSNERR showed an amyloid nucleation score of -0.202 ± 1.1.
VQLGVHV showed an amyloid nucleation score of 0.14 ± 0.4.
VQMYCRSSAQPRVAILAMSG gave an amyloid nucleation score of 1.16 ± 0.12.
In the case of VRCEESWGDIICD, the amyloid nucleation score is reported as “inactive”.
Work on VRCGGVSFGSMWVLDSILVR yielded an amyloid nucleation score of 0.652 ± 0.15.
VRDFCRWASDVRCSNGWRVA showed an amyloid nucleation score of 0.384 ± 0.65.
With VRDLTCSNNITILFMHW the amyloid nucleation score was 6.13 ± 0.079.
Work on VREGSNRVSRFHNGWHQSGL yielded an amyloid nucleation score of -0.555 ± 0.79.
VREYQSWPKGCCT showed an amyloid nucleation score of 4.78 ± 0.065.
VRFVMNRSHHRSRWEAVAFN gave an amyloid nucleation score of 0.255 ± 0.48.
For VRGPIGHLCICSAMSLGWIH, the amyloid nucleation score was 2.67 ± 0.11.
VRHGMSIFSCYPVTPTRLER showed an amyloid nucleation score of 0.266 ± 0.38.
Substance VRLCKYENSSWLSFRFQVQG has an amyloid nucleation score of 0.56 ± 0.39.
For VRLLSFEINSWWLCACCRSV, the amyloid nucleation score was 7 ± 0.076.
VRLPLIVYLKSAYTSPPWGS showed an amyloid nucleation score of -0.702 ± 1.1.
In the case of VRLSWCNMFNRVFPI, the amyloid nucleation score is reported as 0.3 ± 0.8.
Work on VRMSSRRS yielded an amyloid nucleation score of 1.24 ± 0.36.
With VRNGMANKGNDGRAAWEVNG the amyloid nucleation score was 1.25 ± 0.21.
VRNSCSTLLYASVESVFWI gave an amyloid nucleation score of 3.28 ± 0.048.
Substance VRQYPSTVPSLWLYVGSRH has an amyloid nucleation score of 4.19 ± 0.069.
Work on VRRMRG yielded an amyloid nucleation score of 1.18 ± 0.42.
Substance VRSLN has an amyloid nucleation score of 0.058 ± 0.6.
With VRWTTFRECWAGYGGYVIGR the amyloid nucleation score was 1.19 ± 0.17.
Substance VRYDGSKAFEVYMNQIENGS has an amyloid nucleation score of -0.905 ± 0.33.
For VRYFGDILFMSALYNLAGFA, the amyloid nucleation score was “inactive”.
